From patent publication US20080233097A1, “Phosphorylation Site Of Mitogen-Activated Protein Kinases, Modified Proteins And Applications” (UNIVERSIDAD AUTONOMA DE MADRID, priority 2005, published 2008)

Tests used:
[1] = tested on: β2-adrenergic (β2-AR) receptor; assay: isoproterenol stimulation of HEK 293 cells with β2-AR, Flag-p38α and GRK2 (co-immunoprecipitation, anti-phospho-p38); type: cell-based, human
Experimental: 48 hours after the transfection and after a 2 hour serum starvation, the cells were stimulated with the adrenergic agonist isoproterenol (ISO, 10 μM) for 5 or 10 minutes or they were not stimulated (0 min ISO). Likewise, cells without overexpressed β2-AR receptor were stimulated with 0.5 M NaCl for 15 minutes. The cells were solubilized in a buffer suitable for immunoprecipitation with the M2 anti-Flag antibody bound to agarose and after taking aliquots of these lysates (10%) for overexpression control (lysate panels) the immune complexes were incubated overnight at 4° C. The immunoprecipitated proteins (Ip anti-Flag) were resuspended in an electrophoresis breaking buffer and the bound proteins were resolved in a 10% SDS-polyacrylamide gel. […] The negative immunoprecipitation controls (Cneg) in the absence of Flag-p38α and of stimulation with 10 μM isoproterenol are also included in the figure. […] As described in A, non-specific immunoprecipitation controls (Cneg) of the M2 anti-Flag-agarose antibody were carried out.
In the GRK2 and Flag-p38α association experiments, a 1:1:1 ratio of GRK2 (or GRK2-K220R), Flag-p38α, and β2-adrenergic receptor was used (generally 1 μg of each per p60).
The stimulation of HEK293 cells with 10 μM isoproterenol (Sigma) was carried out at 37° C. in culture medium without serum. […]

GRK2 = biological target: T1, GRK2 (Bos taurus, UniProt P21146); assay: phosphorylation of p38 mutants and truncated proteins by GRK2 in vitro; type: biochemical; settings: GST fusion proteins, 30 minutes at 30° C.
T1 construct: made in house; host or cells: Sf9 cells (baculovirus)
T1 sequence (P21146 1-689): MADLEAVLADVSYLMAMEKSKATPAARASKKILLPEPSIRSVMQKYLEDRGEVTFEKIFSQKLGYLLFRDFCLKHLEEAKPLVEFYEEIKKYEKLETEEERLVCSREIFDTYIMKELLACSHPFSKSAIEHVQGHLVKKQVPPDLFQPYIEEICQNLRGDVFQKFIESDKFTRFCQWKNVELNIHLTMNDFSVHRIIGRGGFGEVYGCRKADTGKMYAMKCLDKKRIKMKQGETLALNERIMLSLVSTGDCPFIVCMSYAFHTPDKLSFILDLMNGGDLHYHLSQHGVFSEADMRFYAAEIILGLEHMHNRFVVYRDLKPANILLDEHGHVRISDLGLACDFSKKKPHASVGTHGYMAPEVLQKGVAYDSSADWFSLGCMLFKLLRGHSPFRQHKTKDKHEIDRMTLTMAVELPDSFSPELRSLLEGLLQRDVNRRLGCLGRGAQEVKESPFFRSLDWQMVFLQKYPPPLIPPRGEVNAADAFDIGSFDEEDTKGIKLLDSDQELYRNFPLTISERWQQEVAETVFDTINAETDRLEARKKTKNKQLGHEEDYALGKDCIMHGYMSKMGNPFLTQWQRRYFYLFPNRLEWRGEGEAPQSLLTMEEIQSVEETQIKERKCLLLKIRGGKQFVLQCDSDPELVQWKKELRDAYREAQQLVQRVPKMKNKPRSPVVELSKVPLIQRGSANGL
Experimental: FIG. 6A: Proteins fused to GST (black rectangle in the protein schemes) were purified from bacteria transformed with the plasmids pGEX2T-p38α, pGEX4T-Mxi2 and pGEX4T-Mxi2Δ17: p38α, Mxi2 and Mxi2Δ17. The […] isoforms used as C-terminal truncated mutants for trying to limit the GRK2 phosphorylation site. […] Heparin (150 nM) was included as a specific GRK2 inhibitor. The reactions were stopped by adding SDS breaking buffer. The samples were resolved in 8% SDS-PAGE. For the purpose of assuring the inclusion of identical amounts of protein, they were first visualized in the gel by Coomassie Brilliant Blue (CBB) staining. Then the gel was dried and the radioactivity incorporated to the proteins (^32P) was detected. FIG. 6B: The truncated GST-280-360p38 protein, corresponding to the last 80 p38α amino acids, was generated by means of the Invitrogen Gateway system. Phosphorylation assays were carried out with Mxi2Δ17 as a p38 N-terminal, 280-360 p38 as C-terminal and with whole p38α in the same conditions as described in section A. The phosphorylation was detected by autoradiography (^32P) and controls of the amount of protein used in the assays were carried out concomitantly by Western blot with the anti-GST antibody. The presence of the GST-280-360p38 protein, which is not phosphorylated, is clearly observed. STD, mobility of standard molecular weight proteins.
FIG. 9A: p38T123A and p38T123D proteins, fused to GST, were made by directed mutagenesis in the prokaryotic expression plasmids pGEX2T. The ability of the recombinant GST-p38T123A and GST-p38T123D proteins to be GRK2 substrates in comparison to the wild GST-p38WT protein and at the final concentrations indicated in the Figure was assayed. The upper panels represent the obtained phosphorylation (32 P) and the lower panels show, by anti-p38N WB, the amount of recombinant protein used in the assays. […]
Heparin (150 nM) was included as a specific GRK2 inhibitor. […] Subsequently, the gel was dried and the radioactivity incorporated to the proteins (^32P) was detected. […]

3T3-L1 cells = assay: adipocyte differentiation of 3T3-L1 (Oil Red staining, adipocyte count); type: cell-based; settings: 3T3L1 lines stably transfected, day 15
Source text: 3T3L1 lines stably transfected with pCDNA3-GRK2 and pCDNA3-GRK2K220R were made. GRK2 (anti-GRK2) expression controls obtained in cell lines, compared to 3T3L1 levels, are included. The cells were subjected to a standard differentiation treatment and on day 15 of the latter, the cells were fixed with formalin and stained with Oil Red, a lipophilic coloring which binds to the fats accumulated by the adipocytes. The cells with adipocytic phenotype (in red) were counted under microscope in a total of 25 fields. Representative photographs of two independent experiments are shown in duplicate. A photo of the 3T3L1 cells, free of stimulation with insulin during the differentiation process (control), is also included. The graph reflects the adipocyte count (±SEM) in these experiments.
The cell culture was carried out with 10% DMEM medium of NCS serum. However, the entire differentiation process which is described below must be performed in depleted AXC serum (ion exchange resin) by means of successive adsorptions of fetal calf serum on an anion exchange resin and on active carbon. AXC serum was provided by the kitchen service of the Instituto of Investigaciones Biomédicas (Biomedical Research Institute). The cells are grown until their confluence and are plated (5×10^5 in P-100) in DMEM-10% AXC medium, supplemented with 4 μM of biotin (Sigma). The following day, the medium is replaced with fresh medium. The cells are grown another three days, until confluence is reached again, that day is called day “0”. On day 0 of differentiation, the cells are cultured in a medium containing: 0.5 μM dexamethasone (Sigma), 0.5 mM 3-isobutyl-1-methylxanthine (IMBX, of Sigma) and 1 μM insulin (Sigma) and in which they will remain for another three days. […] From day 6 to day 15, the adipogenesis was analyzed by staining with Oil Red, a red coloring of lipophilic constitution which binds to the drops of fat accumulated by the adipocytes in their cytoplasm. […] The cells are counted in a total of 25 fields per each experimental plate.

Molecule: CC(C)NCC(O)c1ccc(O)c(O)c1 (centres unmarked) [isoproterenol]
- p38 activation (anti-phospho-p38) ([1]; 10 μM): not very strong
- association between GRK2 and p38 (co-immunoprecipitation) ([1]; 10 μM, 0, 5 or 10 minutes): maximum association is obtained five minutes after exposure

B1: purified MKK6 (recombinant MKK6CAM, Upstate Biotech) (protein)
chain: MSQSKGKKRNPGLKIPKEAFEQPQTSSTPPRDLDSKACISIGNQNFEVKADDLEPIMELGRGAYGVVEKMRHVPSGQIMAVKRIRATVNSQEQKRLLMDLDISMRTVDCPFTVTFYGALFREGDVWICMELMDTSLDKFYKQVIDKGQTIPEDILGKIAVSIVKALEHLHSKLSVIHRDVKPSNVLINALGQVKMCDFGISGYLVDEVAKEIDAGCKPYMAPERINPELNQKGYSVKSDIWSLGITMIELAILRFPYDSWGTPFQQLKQVVEEPSPQLPADKFSAEFVDFTSQCLKKNSKERPTYPELMQHPFFTLHESKGTDVASFVKLILGD
- phosphorylation by MKK6CAM (32P incorporation) (GST-p38T123D): GST-p38T123D is a much worse MKK6CAM substrate than the other two p38

B2: GST-280-360 p38α: truncated protein corresponding to the last 80 amino acids of p38α, fused to GST (protein)
chain: AVDLLEKMLVLDSDKRITAAQALAHAYFAQYHDPDDEPVADPYDQSFESRDLLIDEWKSLTYDEVISFVPPPLDQEEMES
modifications: left off: a dimerising Fc or GST
notes: truncated protein corresponding to the last 80 amino acids of p38α, fused to GST
- ability to be a GRK2 substrate (32P incorporation) (GRK2): no trace whatsoever of phosphorylation

B3: K220R: catalytically inactive GRK2-K220R mutant (protein)
chain: MADLEAVLADVSYLMAMEKSKATPAARASKKILLPEPSIRSVMQKYLEDRGEVTFEKIFSQKLGYLLFRDFCLKHLEEAKPLVEFYEEIKKYEKLETEEERLVCSREIFDTYIMKELLACSHPFSKSAIEHVQGHLVKKQVPPDLFQPYIEEICQNLRGDVFQKFIESDKFTRFCQWKNVELNIHLTMNDFSVHRIIGRGGFGEVYGCRKADTGKMYAMRCLDKKRIKMKQGETLALNERIMLSLVSTGDCPFIVCMSYAFHTPDKLSFILDLMNGGDLHYHLSQHGVFSEADMRFYAAEIILGLEHMHNRFVVYRDLKPANILLDEHGHVRISDLGLACDFSKKKPHASVGTHGYMAPEVLQKGVAYDSSADWFSLGCMLFKLLRGHSPFRQHKTKDKHEIDRMTLTMAVELPDSFSPELRSLLEGLLQRDVNRRLGCLGRGAQEVKESPFFRSLDWQMVFLQKYPPPLIPPRGEVNAADAFDIGSFDEEDTKGIKLLDSDQELYRNFPLTISERWQQEVAETVFDTINAETDRLEARKKTKNKQLGHEEDYALGKDCIMHGYMSKMGNPFLTQWQRRYFYLFPNRLEWRGEGEAPQSLLTMEEIQSVEETQIKERKCLLLKIRGGKQFVLQCDSDPELVQWKKELRDAYREAQQLVQRVPKMKNKPRSPVVELSKVPLIQRGSANGL
- acquisition of the adipocytic morphology mediated by insulin (3T3-L1 cells): stimulates it
